Data as given in patent US7807788.
“And” between values parts separate entries of the source, which are not always exact repeats. Equal entries are not always repeated.

Assays:
IL-13 16 mer peptide 5 = biological target: T1, IL-13 16 mer peptide 5; assay: 16 mer peptide ELISA; peptide 5
T1 sequence (peptide, N-terminal biotin; C-terminal amide): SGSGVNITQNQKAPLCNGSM

IL-13 16 mer peptide 29 = biological target: T2, IL-13 16 mer peptide 29; assay: 16 mer peptide ELISA; peptide 29
T2 sequence (peptide, N-terminal biotin; C-terminal amide): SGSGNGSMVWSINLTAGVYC

IL-13 16 mer peptide 12 = biological target: T3, IL-13 16 mer peptide 12; assay: 16 mer peptide ELISA; peptide 12
T3 sequence (peptide, N-terminal biotin; C-terminal amide): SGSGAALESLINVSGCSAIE

IL-13 16 mer peptide 9 = biological target: T4, IL-13 16 mer peptide 9; assay: 16 mer peptide ELISA; peptide 9
T4 sequence (peptide, N-terminal biotin; C-terminal amide): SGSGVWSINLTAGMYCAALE

IL-13 16 mer peptide 16 = biological target: T5, IL-13 16 mer peptide 16; assay: 16 mer peptide ELISA; peptide 16
T5 sequence (peptide, N-terminal biotin; C-terminal amide): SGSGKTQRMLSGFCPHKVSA

IL-13 16 mer peptide 32 = biological target: T6, IL-13 16 mer peptide 32; assay: 16 mer peptide ELISA; peptide 32
T6 sequence (peptide, N-terminal biotin; C-terminal amide): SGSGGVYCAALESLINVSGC

IL-13 16 mer peptide 10 = biological target: T7, IL-13 16 mer peptide 10; assay: 16 mer peptide ELISA; peptide 10
T7 sequence (peptide, N-terminal biotin; C-terminal amide): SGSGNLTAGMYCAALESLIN

IL-13 16 mer peptide 20 = biological target: T8, IL-13 16 mer peptide 20; assay: 16 mer peptide ELISA; peptide 20
T8 sequence (peptide, N-terminal biotin; C-terminal amide): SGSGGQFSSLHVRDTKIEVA

IL-13 16 mer peptide 35 = biological target: T9, IL-13 16 mer peptide 35; assay: 16 mer peptide ELISA; peptide 35
T9 sequence (peptide, N-terminal biotin; C-terminal amide): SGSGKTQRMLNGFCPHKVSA

IL-13 16 mer peptide 17 = biological target: T10, IL-13 16 mer peptide 17; assay: 16 mer peptide ELISA; peptide 17
T10 sequence (peptide, N-terminal biotin; C-terminal amide): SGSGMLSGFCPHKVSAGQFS

IL-13 16 mer peptide 33 = biological target: T11, IL-13 16 mer peptide 33; assay: 16 mer peptide ELISA; peptide 33
T11 sequence (peptide, N-terminal biotin; C-terminal amide): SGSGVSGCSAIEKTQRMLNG

IL-13 16 mer peptide 4 = biological target: T12, IL-13 16 mer peptide 4; assay: 16 mer peptide ELISA; peptide 4
T12 sequence (peptide, N-terminal biotin; C-terminal amide): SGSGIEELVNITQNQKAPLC

IL-13 16 mer peptide 30 = biological target: T13, IL-13 16 mer peptide 30; assay: 16 mer peptide ELISA; peptide 30
T13 sequence (peptide, N-terminal biotin; C-terminal amide): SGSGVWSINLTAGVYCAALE

IL-13 16 mer peptide 40 = biological target: T14, IL-13 16 mer peptide 40; assay: 16 mer peptide ELISA; peptide 40
T14 sequence (peptide, N-terminal biotin; C-terminal amide): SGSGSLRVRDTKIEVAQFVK

IL-13 16 mer peptide 38 = biological target: T15, IL-13 16 mer peptide 38; assay: 16 mer peptide ELISA; peptide 38
T15 sequence (peptide, N-terminal biotin; C-terminal amide): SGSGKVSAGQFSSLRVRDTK

IL-13 16 mer peptide 18 = biological target: T16, IL-13 16 mer peptide 18; assay: 16 mer peptide ELISA; peptide 18
T16 sequence (peptide, N-terminal biotin; C-terminal amide): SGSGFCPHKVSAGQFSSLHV

IL-13 16 mer peptide 19 = biological target: T17, IL-13 16 mer peptide 19; assay: 16 mer peptide ELISA; peptide 19
T17 sequence (peptide, N-terminal biotin; C-terminal amide): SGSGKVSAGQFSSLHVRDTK

IL-13 16 mer peptide 7 = biological target: T18, IL-13 16 mer peptide 7; assay: 16 mer peptide ELISA; peptide 7
T18 sequence (peptide, N-terminal biotin; C-terminal amide): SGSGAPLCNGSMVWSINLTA

IL-13 16 mer peptide 37 = biological target: T19, IL-13 16 mer peptide 37; assay: 16 mer peptide ELISA; peptide 37
T19 sequence (peptide, N-terminal biotin; C-terminal amide): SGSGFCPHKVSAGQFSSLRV

IL-13 16 mer peptide 41 = biological target: T20, IL-13 16 mer peptide 41; assay: 16 mer peptide ELISA; peptide 41
T20 sequence (peptide, by the resolver, N-terminal biotin on the SGSG spacer; C-terminal amide): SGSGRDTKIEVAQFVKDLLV

IL-13 16 mer peptide 39 = biological target: T21, IL-13 16 mer peptide 39; assay: 16 mer peptide ELISA; peptide 39
T21 sequence (peptide, N-terminal biotin; C-terminal amide): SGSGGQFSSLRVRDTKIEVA

IL-13 16 mer peptide 3 = biological target: T22, IL-13 16 mer peptide 3; assay: 16 mer peptide ELISA; peptide 3
T22 sequence (peptide, N-terminal biotin; C-terminal amide): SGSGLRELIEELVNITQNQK

IL-13 16 mer peptide 42 = biological target: T23, IL-13 16 mer peptide 42; assay: 16 mer peptide ELISA; peptide 42
T23 sequence (peptide, N-terminal biotin; C-terminal amide): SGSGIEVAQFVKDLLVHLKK

IL-13 16 mer peptide 13 = biological target: T24, IL-13 16 mer peptide 13; assay: 16 mer peptide ELISA; peptide 13
T24 sequence (peptide, N-terminal biotin; C-terminal amide): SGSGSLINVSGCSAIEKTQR

IL-13 16 mer peptide 11 = biological target: T25, IL-13 16 mer peptide 11; assay: 16 mer peptide ELISA; peptide 11
T25 sequence (peptide, N-terminal biotin; C-terminal amide): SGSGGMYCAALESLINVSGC

IL-13 16 mer peptide 31 = biological target: T26, IL-13 16 mer peptide 31; assay: 16 mer peptide ELISA; peptide 31
T26 sequence (peptide, N-terminal biotin; C-terminal amide): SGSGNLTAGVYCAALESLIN

IL-13 16 mer peptide 34 = biological target: T27, IL-13 16 mer peptide 34; assay: 16 mer peptide ELISA; peptide 34
T27 sequence (peptide, N-terminal biotin; C-terminal amide): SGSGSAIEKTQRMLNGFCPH

IL-13 16 mer peptide 21 = biological target: T28, IL-13 16 mer peptide 21; assay: 16 mer peptide ELISA; peptide 21
T28 sequence (peptide, N-terminal biotin; C-terminal amide): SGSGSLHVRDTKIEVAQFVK

IL-13 16 mer peptide 8 = biological target: T29, IL-13 16 mer peptide 8; assay: 16 mer peptide ELISA; peptide 8
T29 sequence (peptide, N-terminal biotin; C-terminal amide): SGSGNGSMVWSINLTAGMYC

IL-13 16 mer peptide 14 = biological target: T30, IL-13 16 mer peptide 14; assay: 16 mer peptide ELISA; peptide 14
T30 sequence (peptide, N-terminal biotin; C-terminal amide): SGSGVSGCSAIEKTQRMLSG

IL-13 16 mer peptide 6 = biological target: T31, IL-13 16 mer peptide 6; assay: 16 mer peptide ELISA; peptide 6
T31 sequence (peptide, N-terminal biotin; C-terminal amide): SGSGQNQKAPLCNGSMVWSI

IL-13 16 mer peptide 22 = biological target: T32, IL-13 16 mer peptide 22; assay: 16 mer peptide ELISA; peptide 22
T32 sequence (peptide, N-terminal biotin; C-terminal amide): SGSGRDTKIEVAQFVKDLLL

IL-13 16 mer peptide 27 = biological target: T33, IL-13 16 mer peptide 27; assay: 16 mer peptide ELISA; peptide 27
T33 sequence (peptide, N-terminal biotin; C-terminal amide): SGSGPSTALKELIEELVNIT

IL-13 16 mer peptide 28 = biological target: T34, IL-13 16 mer peptide 28; assay: 16 mer peptide ELISA; peptide 28
T34 sequence (peptide, N-terminal biotin; C-terminal amide): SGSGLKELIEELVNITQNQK

IL-13 16 mer peptide 36 = biological target: T35, IL-13 16 mer peptide 36; assay: 16 mer peptide ELISA; peptide 36
T35 sequence (peptide, N-terminal biotin; C-terminal amide): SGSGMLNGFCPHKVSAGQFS

IL-13 16 mer peptide 2 = biological target: T36, IL-13 16 mer peptide 2; assay: 16 mer peptide ELISA; peptide 2
T36 sequence (peptide, N-terminal biotin; C-terminal amide): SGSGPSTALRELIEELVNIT

IL-13 16 mer peptide 15 = biological target: T37, IL-13 16 mer peptide 15; assay: 16 mer peptide ELISA; peptide 15
T37 sequence (peptide, N-terminal biotin; C-terminal amide): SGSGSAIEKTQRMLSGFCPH

IL-13 16 mer peptide 23 = biological target: T38, IL-13 16 mer peptide 23; assay: 16 mer peptide ELISA; peptide 23
T38 sequence (peptide, N-terminal biotin; C-terminal amide): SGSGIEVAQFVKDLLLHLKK

absorbance at 490 nm (IL-13 16 mer peptide 5): 0.063 A490 and 0.065 A490
absorbance at 490 nm (IL-13 16 mer peptide 29): 0.098 A490 and 0.071 A490
absorbance at 490 nm (IL-13 16 mer peptide 12): 0.075 A490 and 0.062 A490
absorbance at 490 nm (IL-13 16 mer peptide 9): 0.061 A490 and 0.07 A490
absorbance at 490 nm (IL-13 16 mer peptide 16): 0.099 A490 and 0.141 A490
absorbance at 490 nm (IL-13 16 mer peptide 32): 0.071 A490 and 0.057 A490
absorbance at 490 nm (IL-13 16 mer peptide 10): 0.075 A490 and 0.064 A490
absorbance at 490 nm (IL-13 16 mer peptide 20): 0.06 A490 and 0.104 A490
absorbance at 490 nm (IL-13 16 mer peptide 35): 0.089 A490 and 0.09 A490
absorbance at 490 nm (IL-13 16 mer peptide 17): 0.064 A490 and 0.06 A490
absorbance at 490 nm (IL-13 16 mer peptide 33): 0.088 A490 and 0.084 A490
absorbance at 490 nm (IL-13 16 mer peptide 4): 0.079 A490 and 0.105 A490
absorbance at 490 nm (IL-13 16 mer peptide 30): 0.062 A490
absorbance at 490 nm (IL-13 16 mer peptide 40): 0.06 A490
absorbance at 490 nm (IL-13 16 mer peptide 38): 0.067 A490 and 0.056 A490
absorbance at 490 nm (IL-13 16 mer peptide 18): 0.073 A490 and 0.09 A490
absorbance at 490 nm (IL-13 16 mer peptide 19): 0.077 A490 and 0.063 A490
absorbance at 490 nm (IL-13 16 mer peptide 7): 0.061 A490 and 0.072 A490
absorbance at 490 nm (IL-13 16 mer peptide 37): 0.068 A490 and 0.063 A490
absorbance at 490 nm (IL-13 16 mer peptide 41): 0.058 A490
absorbance at 490 nm (IL-13 16 mer peptide 39): 0.057 A490 and 0.055 A490
absorbance at 490 nm (IL-13 16 mer peptide 3): 0.067 A490 and 0.07 A490
absorbance at 490 nm (IL-13 16 mer peptide 42): 0.104 A490 and 0.108 A490
absorbance at 490 nm (IL-13 16 mer peptide 13): 0.066 A490 and 0.063 A490
absorbance at 490 nm (IL-13 16 mer peptide 11): 0.064 A490 and 0.061 A490
absorbance at 490 nm (IL-13 16 mer peptide 31): 0.064 A490 and 0.056 A490
absorbance at 490 nm (IL-13 16 mer peptide 34): 0.082 A490 and 0.067 A490
absorbance at 490 nm (IL-13 16 mer peptide 21): 0.061 A490 and 0.078 A490
absorbance at 490 nm (IL-13 16 mer peptide 8): 0.084 A490 and 0.071 A490
absorbance at 490 nm (IL-13 16 mer peptide 14): 0.119 A490 and 0.115 A490
absorbance at 490 nm (IL-13 16 mer peptide 6): 0.072 A490 and 0.075 A490
absorbance at 490 nm (IL-13 16 mer peptide 22): 0.09 A490 and 0.076 A490
absorbance at 490 nm (IL-13 16 mer peptide 27): 0.06 A490 and 0.082 A490
absorbance at 490 nm (IL-13 16 mer peptide 28): 0.074 A490 and 0.078 A490
absorbance at 490 nm (IL-13 16 mer peptide 36): 0.073 A490 and 0.074 A490
absorbance at 490 nm (IL-13 16 mer peptide 2): 0.057 A490 and 0.068 A490
absorbance at 490 nm (IL-13 16 mer peptide 15): 0.081 A490 and 0.129 A490
absorbance at 490 nm (IL-13 16 mer peptide 23): 0.144 A490 and 0.135 A490
B1: mouse monoclonal antibody 6A1 (antibody, mouse IgG1, V domains shown)
VH: EIQLQQSVAELVRPGASVRLSCTASGFYIKDTYMHWVIQRPEQGLEWIGTIDPANGNTKYVPKFQGKATITADTSSNTAYLRLSSLTSEDTAIYYCARSIYDDYHYDDYYAMDYWGQGTSVTVSS
VL: DVLMTQTPLSLPVSLGDQASISCRSSQNIVHINGNTYLEWYLQKPGQSPKLLIYKISDRFSGVPDRFSGSGSGTDFTLKISRVEAEDLGVYYCFQGSHVPWTFGGGTKLEIK
